Reference: PMC11842806, “Molecular basis of foreign DNA recognition by BREX anti-phage immunity system” (Nature Communications, 2025)
Residue numbers refer to the chain shown, from its start.

T1: BrxX G785T/N823S (TRD variant) (Escherichia coli HS, UniProt P0DUF9 1-1205, G785T;N823S)
T1 sequence: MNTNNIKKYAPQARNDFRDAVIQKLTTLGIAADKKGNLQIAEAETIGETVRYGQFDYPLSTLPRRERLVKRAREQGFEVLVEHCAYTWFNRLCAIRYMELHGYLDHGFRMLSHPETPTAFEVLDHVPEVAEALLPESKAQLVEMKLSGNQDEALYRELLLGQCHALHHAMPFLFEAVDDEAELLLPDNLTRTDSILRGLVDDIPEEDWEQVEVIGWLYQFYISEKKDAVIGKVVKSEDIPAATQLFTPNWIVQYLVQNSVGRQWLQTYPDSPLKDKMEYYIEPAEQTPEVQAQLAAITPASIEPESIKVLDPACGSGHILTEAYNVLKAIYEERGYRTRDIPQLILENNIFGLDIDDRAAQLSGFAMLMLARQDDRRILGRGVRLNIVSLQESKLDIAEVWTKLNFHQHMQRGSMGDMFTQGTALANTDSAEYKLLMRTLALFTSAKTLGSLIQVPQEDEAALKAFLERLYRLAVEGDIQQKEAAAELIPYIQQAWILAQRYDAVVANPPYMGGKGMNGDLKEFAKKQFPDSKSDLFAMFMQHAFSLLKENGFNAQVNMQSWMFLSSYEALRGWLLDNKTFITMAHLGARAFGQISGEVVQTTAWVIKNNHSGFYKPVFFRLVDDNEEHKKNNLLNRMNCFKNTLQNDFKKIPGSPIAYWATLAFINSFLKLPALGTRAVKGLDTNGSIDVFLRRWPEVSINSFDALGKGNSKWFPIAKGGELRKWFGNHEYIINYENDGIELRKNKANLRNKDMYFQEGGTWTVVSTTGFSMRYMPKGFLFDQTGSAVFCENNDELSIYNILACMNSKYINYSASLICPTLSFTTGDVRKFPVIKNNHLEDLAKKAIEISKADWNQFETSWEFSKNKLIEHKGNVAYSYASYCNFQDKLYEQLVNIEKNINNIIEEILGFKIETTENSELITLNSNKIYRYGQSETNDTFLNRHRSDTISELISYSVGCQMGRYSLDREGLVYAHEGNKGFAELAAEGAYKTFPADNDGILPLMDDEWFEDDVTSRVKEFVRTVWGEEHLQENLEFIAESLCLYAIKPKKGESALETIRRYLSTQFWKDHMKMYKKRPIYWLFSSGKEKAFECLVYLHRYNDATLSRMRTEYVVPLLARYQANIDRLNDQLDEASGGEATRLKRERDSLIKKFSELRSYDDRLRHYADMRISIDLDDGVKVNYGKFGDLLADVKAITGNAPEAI

B1: 40 bp BREX (dsDNA)
DNA 1: TCAGTAGTCAAGTCAGTGGTAAGGTCAGGACAGGAGTCAG
DNA 2: CTGACTCCTGTCCTGACCTTACCACTGACTTGACTACTGA
B2: 40 bp BREX 4C (dsDNA)
DNA 1: B1 DNA 1 with A21C
DNA 2: B1 DNA 2 with T20G
B3: 40 bp BREX 4T (dsDNA)
DNA 1: B1 DNA 1 with A21T
DNA 2: B1 DNA 2 with T20A
B4: 40 bp BREX 4G (dsDNA)
DNA 1: B1 DNA 1 with A21G
DNA 2: B1 DNA 2 with T20C

Biological target: T1, BrxX G785T/N823S (TRD variant)
Assay: EMSA; decreased affinity; EMSA: 20 nM Cy5-DNA, 0.5x TBE pH 8.0, 35 mM NaCl, 5% glycerol, +/-0.5 mM SAM or SAH, 30 min, room temperature; BLI: 20 mM Tris-HCl pH 8.0, 100 mM NaCl, 0.05 mg/mL BSA, 0.02% Tween-20, +/-0.5 mM SAM, 30 C
Details: protein: recombinant; tags: N-His6; label: 5'-Cy5 on strand 1; blunt

| Binder | binding result |
| --- | --- |
| B1 | binds |
| B2 | binds |
| B3 | binds |
| B4 | binds |
